Data published in US6495346.

Columns and labels:
Experiment in all cases: cell-based or functional assay
[1] = molecular target: m-fos-Gal4 (SV40)
[2] = molecular target: wt-fos-Gal4 (SV40)
[3] = molecular target: LCK-Gal4 (UniProt P04386)

Sequence of m-jun-VP16 (P06492 411-455, tags or fused parts left off): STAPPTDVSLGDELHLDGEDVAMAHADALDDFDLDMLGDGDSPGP
Sequence of wt-jun-VP16 (P06492 411-455, tags or fused parts left off): as above
Sequence of CD4-VP16 (P06492 whole entry): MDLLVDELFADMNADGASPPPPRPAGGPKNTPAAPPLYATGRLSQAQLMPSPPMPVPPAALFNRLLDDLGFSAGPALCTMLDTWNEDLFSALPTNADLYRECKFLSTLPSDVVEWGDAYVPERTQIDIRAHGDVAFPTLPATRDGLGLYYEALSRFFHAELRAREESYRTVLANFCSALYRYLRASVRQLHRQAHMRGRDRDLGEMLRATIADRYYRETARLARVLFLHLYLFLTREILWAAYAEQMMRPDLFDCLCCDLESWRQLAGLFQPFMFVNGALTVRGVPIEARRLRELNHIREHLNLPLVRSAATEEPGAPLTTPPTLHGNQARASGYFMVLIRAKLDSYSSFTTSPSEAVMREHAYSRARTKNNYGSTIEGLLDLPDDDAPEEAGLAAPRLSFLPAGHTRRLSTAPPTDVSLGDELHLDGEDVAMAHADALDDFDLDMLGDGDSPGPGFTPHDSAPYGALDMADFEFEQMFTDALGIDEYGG

Substance | Luciferase values (RLU), MeWo cells, G0/G1-synchronized cells, 10xBS Gal4-SV40 promoter [1] [RLU] | Luciferase values (RLU), MeWo cells, proliferating cells, 10xBS Gal4-SV40 promoter [1] [RLU] | Luciferase values (RLU), MeWo cells, G0/G1-synchronized cells, 10xBS Gal4-SV40 promoter, both subunits on one plasmid (Tyr-m-fos-CycA-m-jun) [1] [RLU] | Luciferase values (RLU), MeWo cells, proliferating cells, 10xBS Gal4-SV40 promoter, both subunits on one plasmid (Tyr-m-fos-CycA-m-jun) [1] [RLU] | Luciferase values (RLU), MeWo cells, G0/G1-synchronized cells, 10xBS Gal4-SV40 promoter [2] [RLU] | Luciferase values (RLU), MeWo cells, proliferating cells, 10xBS Gal4-SV40 promoter [2] [RLU] | Luciferase values (RLU), MeWo cells, G0/G1-synchronized cells, 10xBS Gal4-SV40 promoter (Tyr-LCK-Gal4-CycACD4-VP16) [3] [RLU] | Luciferase values (RLU), MeWo cells, proliferating cells, 10xBS Gal4-SV40 promoter (Tyr-LCK-Gal4-CycACD4-VP16) [3] [RLU]
wt-jun-VP16 (from UniProt P06492 411-455; P05412 276-312) | 283 | 284 |  |  |  |  |  | 
m-jun-VP16 (from UniProt P06492 411-455; P05412 276-312) | 271 | 18300 | 12700 | 1.02e+06 | 224 | 290 |  | 
CD4-VP16 (from UniProt P06492 406-488) |  |  |  |  |  |  | 5990 | 72400
